IntAct's records for PubMed 35512704

B1: Mothers against decapentaplegic homolog 4 (Homo sapiens), Q13485 (parent)
chain: MDNMSITNTPTSNDACLSIVHSLMCHRQGGESETFAKRAIESLVKKLKEKKDELDSLITAITTNGAHPSKCVTIQRTLDGRLQVAGRKGFPHVIYARLWRWPDLHKNELKHVKYCQYAFDLKCDSVCVNPYHYERVVSPGIDLSGLTLQSNAPSSMMVKDEYVHDFEGQPSLSTEGHSIQTIQHPPSNRASTETYSTPALLAPSESNATSTANFPNIPVASTSQPASILGGSHSEGLLQIASGPQPGQQQNGFTGQPATYHHNSTTTWTGSRTAPYTPNLPHHQNGHLQHHPPMPPHPGHYWPVHNELAFQPPISNHPAPEYWCSIAYFEMDVQVGETFKVPSSCPIVTVDGYVDPSGGDRFCLGQLSNVHRTEAIERARLHIGKGVQLECKGEGDVWVRCLSDHAVFVQSYYLDREAGRAPGDAVHKIYPSAYIKVFDLRQCHRQMQQQAATAQAAAAAQAAAVAGNIPGPGSVGGIAPAISLSAAAGIGVDDLRRLCILRMSFVKGWGPDYPRQSIKETPCWIEIHLHRALQLLDEVLHTMPIADPQPLD
partner: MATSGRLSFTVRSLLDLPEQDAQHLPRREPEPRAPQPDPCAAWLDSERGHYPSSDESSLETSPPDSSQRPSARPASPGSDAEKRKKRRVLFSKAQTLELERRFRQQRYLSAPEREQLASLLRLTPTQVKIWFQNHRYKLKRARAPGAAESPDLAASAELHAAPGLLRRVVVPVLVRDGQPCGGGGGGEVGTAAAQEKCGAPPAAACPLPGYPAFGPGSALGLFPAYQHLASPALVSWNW
B2: Mothers against decapentaplegic homolog 4 (Homo sapiens), Q13485 (parent)
chain: B1 chain
partner: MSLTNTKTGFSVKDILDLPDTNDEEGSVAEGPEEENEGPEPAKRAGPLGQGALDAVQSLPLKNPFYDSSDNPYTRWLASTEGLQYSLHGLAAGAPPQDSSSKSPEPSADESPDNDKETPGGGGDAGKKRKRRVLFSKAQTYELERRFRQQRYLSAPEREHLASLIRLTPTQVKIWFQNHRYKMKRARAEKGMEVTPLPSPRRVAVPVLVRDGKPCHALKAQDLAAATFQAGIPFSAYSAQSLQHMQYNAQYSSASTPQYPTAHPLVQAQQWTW
B3: Mothers against decapentaplegic homolog 4 (Homo sapiens), Q13485 (parent)
chain: B1 chain
partner: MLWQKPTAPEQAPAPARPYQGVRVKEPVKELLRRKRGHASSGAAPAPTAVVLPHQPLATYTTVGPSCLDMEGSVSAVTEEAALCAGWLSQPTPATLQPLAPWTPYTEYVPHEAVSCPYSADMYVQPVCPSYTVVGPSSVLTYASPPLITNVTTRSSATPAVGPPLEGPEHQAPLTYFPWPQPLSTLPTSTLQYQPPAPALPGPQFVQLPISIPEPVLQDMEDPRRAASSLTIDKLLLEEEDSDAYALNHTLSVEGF
B4: Mothers against decapentaplegic homolog 4 (Homo sapiens), Q13485 (parent)
chain: B1 chain
partner: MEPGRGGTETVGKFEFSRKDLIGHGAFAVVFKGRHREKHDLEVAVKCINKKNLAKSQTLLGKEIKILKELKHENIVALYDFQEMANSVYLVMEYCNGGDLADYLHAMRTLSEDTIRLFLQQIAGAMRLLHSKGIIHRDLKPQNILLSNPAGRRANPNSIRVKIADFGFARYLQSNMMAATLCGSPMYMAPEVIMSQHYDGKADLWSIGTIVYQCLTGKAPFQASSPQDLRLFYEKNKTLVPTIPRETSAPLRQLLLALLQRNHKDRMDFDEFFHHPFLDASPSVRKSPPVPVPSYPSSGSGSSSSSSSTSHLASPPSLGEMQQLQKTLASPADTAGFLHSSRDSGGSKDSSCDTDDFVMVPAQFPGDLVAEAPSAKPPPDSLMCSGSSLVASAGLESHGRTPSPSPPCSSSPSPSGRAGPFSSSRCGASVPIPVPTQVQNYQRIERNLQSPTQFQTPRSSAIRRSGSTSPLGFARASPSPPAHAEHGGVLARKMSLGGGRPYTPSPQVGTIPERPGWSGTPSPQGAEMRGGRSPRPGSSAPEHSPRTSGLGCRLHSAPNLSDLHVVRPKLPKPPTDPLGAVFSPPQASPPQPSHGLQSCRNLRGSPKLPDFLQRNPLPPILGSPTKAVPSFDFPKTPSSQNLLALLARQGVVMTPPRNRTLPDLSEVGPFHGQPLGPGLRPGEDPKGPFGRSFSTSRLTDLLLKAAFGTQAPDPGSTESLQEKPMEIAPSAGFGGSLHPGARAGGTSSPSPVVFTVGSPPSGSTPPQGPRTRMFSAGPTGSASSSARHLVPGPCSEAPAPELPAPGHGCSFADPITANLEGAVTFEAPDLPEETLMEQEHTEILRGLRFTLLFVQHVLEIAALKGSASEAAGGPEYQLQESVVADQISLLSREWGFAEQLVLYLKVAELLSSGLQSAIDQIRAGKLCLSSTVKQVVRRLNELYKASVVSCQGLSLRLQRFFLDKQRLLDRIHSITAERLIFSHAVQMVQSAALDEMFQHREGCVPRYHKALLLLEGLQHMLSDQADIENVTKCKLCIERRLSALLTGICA
B5: Mothers against decapentaplegic homolog 4 (Homo sapiens), Q13485 (parent)
chain: B1 chain
partner: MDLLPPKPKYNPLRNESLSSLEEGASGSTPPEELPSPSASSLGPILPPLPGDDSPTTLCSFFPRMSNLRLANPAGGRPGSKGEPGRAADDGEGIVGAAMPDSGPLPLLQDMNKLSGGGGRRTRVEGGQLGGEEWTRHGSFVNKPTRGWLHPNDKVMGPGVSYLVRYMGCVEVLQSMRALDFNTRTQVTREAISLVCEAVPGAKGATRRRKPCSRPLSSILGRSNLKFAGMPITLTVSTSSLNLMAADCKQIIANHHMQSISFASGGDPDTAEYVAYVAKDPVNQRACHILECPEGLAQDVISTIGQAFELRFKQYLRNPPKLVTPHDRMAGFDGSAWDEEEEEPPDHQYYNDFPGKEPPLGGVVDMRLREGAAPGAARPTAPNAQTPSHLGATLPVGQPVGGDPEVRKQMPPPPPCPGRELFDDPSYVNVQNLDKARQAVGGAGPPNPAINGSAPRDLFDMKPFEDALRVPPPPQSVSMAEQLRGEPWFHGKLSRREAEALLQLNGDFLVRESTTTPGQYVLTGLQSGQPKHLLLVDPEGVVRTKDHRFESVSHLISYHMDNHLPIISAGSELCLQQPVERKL
B6: Mothers against decapentaplegic homolog 4 (Homo sapiens), Q13485 (parent)
chain: B1 chain
partner: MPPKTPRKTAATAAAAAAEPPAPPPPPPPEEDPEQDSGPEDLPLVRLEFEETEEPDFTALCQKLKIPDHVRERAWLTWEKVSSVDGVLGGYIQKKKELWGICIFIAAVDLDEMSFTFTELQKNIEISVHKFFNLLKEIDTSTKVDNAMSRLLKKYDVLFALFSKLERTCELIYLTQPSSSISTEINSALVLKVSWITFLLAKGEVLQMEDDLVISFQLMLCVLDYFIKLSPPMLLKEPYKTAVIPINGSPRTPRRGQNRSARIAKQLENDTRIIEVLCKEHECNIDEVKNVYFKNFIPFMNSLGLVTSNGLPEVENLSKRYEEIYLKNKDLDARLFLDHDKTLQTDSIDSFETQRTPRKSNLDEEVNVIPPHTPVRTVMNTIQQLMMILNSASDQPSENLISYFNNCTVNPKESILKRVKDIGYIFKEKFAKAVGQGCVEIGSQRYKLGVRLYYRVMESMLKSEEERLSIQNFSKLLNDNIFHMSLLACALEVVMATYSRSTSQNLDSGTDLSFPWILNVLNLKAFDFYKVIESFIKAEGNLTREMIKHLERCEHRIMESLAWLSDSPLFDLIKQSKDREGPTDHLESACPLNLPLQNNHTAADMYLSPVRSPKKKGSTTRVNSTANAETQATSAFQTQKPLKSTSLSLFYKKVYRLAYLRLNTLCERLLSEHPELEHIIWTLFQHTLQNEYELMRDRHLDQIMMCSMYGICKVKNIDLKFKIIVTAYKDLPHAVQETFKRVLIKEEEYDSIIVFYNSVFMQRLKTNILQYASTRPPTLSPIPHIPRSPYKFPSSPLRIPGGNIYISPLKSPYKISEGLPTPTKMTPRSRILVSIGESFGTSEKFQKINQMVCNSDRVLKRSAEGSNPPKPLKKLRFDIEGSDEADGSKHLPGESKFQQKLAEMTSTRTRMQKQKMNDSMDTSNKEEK
B7: Mothers against decapentaplegic homolog 4 (Homo sapiens), Q13485 (parent)
chain: B1 chain
partner: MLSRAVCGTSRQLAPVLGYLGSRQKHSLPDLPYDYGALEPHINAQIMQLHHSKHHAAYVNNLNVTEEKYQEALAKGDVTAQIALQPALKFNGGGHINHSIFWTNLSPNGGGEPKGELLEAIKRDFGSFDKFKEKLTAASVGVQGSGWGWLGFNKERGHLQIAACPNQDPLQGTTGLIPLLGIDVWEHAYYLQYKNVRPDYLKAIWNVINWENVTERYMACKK
B8: Mothers against decapentaplegic homolog 4 (Homo sapiens), Q13485 (parent)
chain: B1 chain
partner: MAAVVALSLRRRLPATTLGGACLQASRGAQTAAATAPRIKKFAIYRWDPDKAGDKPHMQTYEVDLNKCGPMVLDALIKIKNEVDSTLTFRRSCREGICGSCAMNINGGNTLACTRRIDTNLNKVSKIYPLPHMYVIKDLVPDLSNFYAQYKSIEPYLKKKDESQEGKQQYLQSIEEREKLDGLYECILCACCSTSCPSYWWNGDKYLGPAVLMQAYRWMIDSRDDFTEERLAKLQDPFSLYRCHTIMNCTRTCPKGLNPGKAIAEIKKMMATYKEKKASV
B9: Mothers against decapentaplegic homolog 4 (Homo sapiens), Q13485 (parent)
chain: B1 chain
partner: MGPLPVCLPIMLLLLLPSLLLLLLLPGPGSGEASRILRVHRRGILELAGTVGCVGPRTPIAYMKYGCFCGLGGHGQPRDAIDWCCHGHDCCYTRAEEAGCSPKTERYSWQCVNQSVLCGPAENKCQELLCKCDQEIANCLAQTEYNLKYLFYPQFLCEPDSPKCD

Variants of: B1
Details: with nkx28_human NKX2-8, O15522

Row | Variant | effect of a mutation on the interaction
1 | R361H | with no effect

Variants of: B2
Details: with nkx22_human NKX2-2, O95096

Row | Variant | effect of a mutation on the interaction
2 | R361C | with no effect

Variants of: B2
Details: with nkx22_human NKX2-2, O95096
Remark: another data set of the same source

Row | Variant | effect of a mutation on the interaction
3 | R361H | with no effect

Variants of: B2
Details: with nkx22_human NKX2-2, O95096
Remark: another data set of the same source

Row | Variant | effect of a mutation on the interaction
4 | D351H | with no effect

Variants of: B3
Details: with obf1_human POU2AF1, Q16633

Row | Variant | effect of a mutation on the interaction
5 | G386D | with no effect

Variants of: B3
Details: with obf1_human POU2AF1, Q16633
Remark: another data set of the same source

Row | Variant | effect of a mutation on the interaction
6 | G386D | increasing interaction strength

Variants of: B4
Details: with ulk1_human ULK1, O75385

Row | Variant | effect of a mutation on the interaction
7 | D351H | with no effect

Variants of: B4
Details: with ulk1_human ULK1, O75385
Remark: another data set of the same source

Row | Variant | effect of a mutation on the interaction
8 | G386D | with no effect

Variants of: B4
Details: with ulk1_human ULK1, O75385
Remark: another data set of the same source

Row | Variant | effect of a mutation on the interaction
9 | R361H | with no effect

Variants of: B4
Details: with ulk1_human ULK1, O75385
Remark: another data set of the same source

Row | Variant | effect of a mutation on the interaction
10 | R361C | with no effect

Variants of: B5
Details: with shc1_human SHC1, P29353

Row | Variant | effect of a mutation on the interaction
11 | D351H | with no effect

Variants of: B5
Details: with shc1_human SHC1, P29353
Remark: another data set of the same source

Row | Variant | effect of a mutation on the interaction
12 | R361H | with no effect

Variants of: B5
Details: with shc1_human SHC1, P29353
Remark: another data set of the same source

Row | Variant | effect of a mutation on the interaction
13 | R361C | with no effect

Variants of: B5
Details: with shc1_human SHC1, P29353
Remark: another data set of the same source

Row | Variant | effect of a mutation on the interaction
14 | G386D | with no effect

Variants of: B6
Details: with rb_human RB1, P06400

Row | Variant | effect of a mutation on the interaction
15 | D351H | with no effect

Variants of: B7
Details: with sodm_human SOD2, P04179

Row | Variant | effect of a mutation on the interaction
16 | D351H | with no effect

Variants of: B7
Details: with sodm_human SOD2, P04179
Remark: another data set of the same source

Row | Variant | effect of a mutation on the interaction
17 | G386D | with no effect

Variants of: B7
Details: with sodm_human SOD2, P04179
Remark: another data set of the same source

Row | Variant | effect of a mutation on the interaction
18 | R361C | with no effect

Variants of: B7
Details: with sodm_human SOD2, P04179
Remark: another data set of the same source

Row | Variant | effect of a mutation on the interaction
19 | R361H | with no effect

Variants of: B8
Details: with sdhb_human SDHB

Row | Variant | effect of a mutation on the interaction
20 | G386D | with no effect

Variants of: B8
Details: with sdhb_human SDHB
Remark: another data set of the same source

Row | Variant | effect of a mutation on the interaction
21 | G386D | increasing interaction strength

Variants of: B9
Details: with pa2gx_human PLA2G10, O15496

Row | Variant | effect of a mutation on the interaction
22 | G386D | with no effect

Variants of: B9
Details: with pa2gx_human PLA2G10, O15496
Remark: another data set of the same source

Row | Variant | effect of a mutation on the interaction
23 | R361C | with no effect

Variants of: B9
Details: with pa2gx_human PLA2G10, O15496
Remark: another data set of the same source

Row | Variant | effect of a mutation on the interaction
24 | D351H | with no effect
